Laboratory results reported in the supplement of paper PMC7877785.
± gives the uncertainty stated by the source.

Assay: self-splicing fitness, log relative to wild type (ln ratio); higher = more splicing; Tetrahymena group I intron in knt gene, E. coli kanamycin selection, DiMSum; sequences stand for … in CUCUCU…GGAGGGAAAAGUUAUCAGGCAUGCACCUGGUAGCUAGUCUUUAAACCAAUAGAUUGCAUCGGUUUAAAAGGCAAGACCGUCAAAUUGCGGGAAAGGGGUCAACAGCCGUUCAGUACCAAGUCUCAGGGGAAACUUUGAGAUGGCCUUGCAAAGGGUAUGGUAAUAAGCUGACGGACAUGGUCCUAACCACGCAGCCAAGUCCUAAGUCAACAGAUCUUCUGUUGAUAUGGAUGCAGUUCACAGACUAAAUGUCGGUCGGGGAAGAUGUAUUCUUCUCAUAAGAUAUAGUCGGACCUCUCCUUAAUGGGAGCUAGCGGAUGAAGUGAUGCAACACUGGAGCCGCUGGGAACUAAUUUGUAUGCGAAAGUAUAUUGAUUAGUUUUGGAGUACUCGUGGUCG
Outline: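 Fitness was computed with DiMSum as the error-weighted combination of replicate fold changes, kanamycin versus none, each normalised to wild type. The library randomised all eight intron nucleotides of the P1ex region, with the intron placed in the knt kanamycin-resistance gene on pET-22b(+) in E. coli BL21(DE3). Six replicate transformations were grown overnight at 37°C or 30°C on LB agar with or without 25 μg/mL kanamycin, plus 100 μg/mL carbenicillin, 50 μM IPTG and 0.2% rhamnose. Pooled colonies were amplicon-sequenced on an Illumina HiSeq 2500.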

Sequence	self-splicing fitness (ln) (30 °C)	self-splicing fitness (ln) (37 °C)
CUUCAGCAAUAUUACGGAUU	-2.13 ± 0.18	-1.75 ± 0.16
CUUCAGCAAUAUUACGGCCG	-0.988 ± 0.16	-0.154 ± 0.21
CUUCAGCAAUAUUACGGCUA	-3.01 ± 0.2	-2.06 ± 0.24
CUUCAGCAAUAUUACGGGAG	-3.41 ± 0.24	-2.52 ± 0.22
CUUCAGCAAUAUUACGGUCG	-0.131 ± 0.062	-0.155 ± 0.093
CUUCAGCAAUAUUACGUAUA	-3.15 ± 0.27	-1.98 ± 0.2
CUUCAGCAAUAUUACGUAUG	-0.871 ± 0.066	-0.276 ± 0.074
CUUCAGCAAUAUUACGUCGA	-4.35 ± 0.46	-2.95 ± 0.3
CUUCAGCAAUAUUACGUCUA	–	-2.38 ± 0.32
CUUCAGCAAUAUUACGUGGA	-3.13 ± 0.33	-3.04 ± 0.28
CUUCAGCAAUAUUACGUUAA	-2.84 ± 0.24	-3.51 ± 0.46
CUUCAGCAAUAUUACGUUUU	-1.52 ± 0.13	-2.46 ± 0.26
CUUGAGCAAUAUUACGAAAG	-2.3 ± 0.25	-3.32 ± 0.46
CUUGAGCAAUAUUACGAAGA	-2.53 ± 0.27	-3.17 ± 0.37
CUUGAGCAAUAUUACGACCG	-1.68 ± 0.19	-1.16 ± 0.26
CUUGAGCAAUAUUACGAGAC	-2.12 ± 0.33	–
CUUGAGCAAUAUUACGAUGA	-1.49 ± 0.23	-2.03 ± 0.28
CUUGAGCAAUAUUACGAUGC	-3.25 ± 0.3	-2.5 ± 0.41
CUUGAGCAAUAUUACGAUUG	-2.49 ± 0.13	-1.32 ± 0.14
CUUGAGCAAUAUUACGCAAG	-2.37 ± 0.42	–
CUUGAGCAAUAUUACGCAGU	-2.73 ± 0.23	-2.64 ± 0.37
CUUGAGCAAUAUUACGCCGU	-3.24 ± 0.29	–
CUUGAGCAAUAUUACGCCUC	–	-0.747 ± 0.3
CUUGAGCAAUAUUACGCGAC	-3.55 ± 0.28	-0.595 ± 0.16
CUUGAGCAAUAUUACGCGGA	-2.71 ± 0.33	-3.47 ± 0.31

Sequence	self-splicing fitness (ln) (30 °C)	self-splicing fitness (ln) (37 °C)
CUUGAGCAAUAUUACGCUGG	-3.81 ± 0.25	-2.17 ± 0.17
CUUGAGCAAUAUUACGGAAU	-2.85 ± 0.41	-2.3 ± 0.48
CUUGAGCAAUAUUACGGGAA	-3.79 ± 0.42	-2.73 ± 0.2
CUUGAGCAAUAUUACGGGCG	-2.02 ± 0.13	-1.51 ± 0.11
CUUGAGCAAUAUUACGGGGA	-3.27 ± 0.2	-2.87 ± 0.28
CUUGAGCAAUAUUACGGUCC	-0.924 ± 0.28	–
CUUGAGCAAUAUUACGGUCU	-3.17 ± 0.29	-3.61 ± 0.37
CUUGAGCAAUAUUACGGUGU	-3 ± 0.13	-3.01 ± 0.18
CUUGAGCAAUAUUACGUAGA	-3.54 ± 0.21	-3.91 ± 0.39
CUUGAGCAAUAUUACGUAUG	-1.21 ± 0.1	-1.35 ± 0.14
CUUGAGCAAUAUUACGUCCG	-1.86 ± 0.19	-0.79 ± 0.19
CUUGAGCAAUAUUACGUCGC	-2.54 ± 0.21	-1.81 ± 0.19
CUUGAGCAAUAUUACGUCUC	-3.07 ± 0.24	-2.19 ± 0.27
CUUGAGCAAUAUUACGUCUG	-0.671 ± 0.086	-0.657 ± 0.11
CUUGAGCAAUAUUACGUCUU	-4.1 ± 0.21	-2.48 ± 0.2
CUUGAGCAAUAUUACGUGUU	–	-2.54 ± 0.23
CUUGAGCAAUAUUACGUUAG	-3.13 ± 0.2	-1.11 ± 0.15
CUUGAGCAAUAUUACGUUCG	-3.19 ± 0.3	-1.71 ± 0.21
CUUUAGCAAUAUUACGACAC	-3.75 ± 0.3	-2.54 ± 0.27
CUUUAGCAAUAUUACGACAU	-3.762 ± 0.032	-2.81 ± 0.043
CUUUAGCAAUAUUACGAGGA	-2.59 ± 0.32	-3.02 ± 0.4
CUUUAGCAAUAUUACGCGUG	-1.89 ± 0.14	-1.12 ± 0.17
CUUUAGCAAUAUUACGCUCU	-2.15 ± 0.22	-1.3 ± 0.26
CUUUAGCAAUAUUACGGAAU	-1.75 ± 0.23	-1.73 ± 0.36
CUUUAGCAAUAUUACGGACA	-2.76 ± 0.38	-1.44 ± 0.28

Sequence	self-splicing fitness (ln) (30 °C)	self-splicing fitness (ln) (37 °C)
CUUUAGCAAUAUUACGGGUC	-3.26 ± 0.17	-1.32 ± 0.21
CUUUAGCAAUAUUACGUAAA	–	-2.24 ± 0.28
CUUUAGCAAUAUUACGUAGU	-3.52 ± 0.2	-2.2 ± 0.22
CUUUAGCAAUAUUACGUGAG	-1.07 ± 0.11	-0.581 ± 0.14
CUUUAGCAAUAUUACGUGUA	-3.34 ± 0.19	-2.81 ± 0.24
CUUUAGCAAUAUUACGUUCU	-3.16 ± 0.25	-2.78 ± 0.29
GAAAAGCAAUAUUACGAACG	-0.893 ± 0.083	-0.364 ± 0.11
GAAAAGCAAUAUUACGAACU	-0.519 ± 0.1	0.532 ± 0.13
GAAAAGCAAUAUUACGAAGG	-3.27 ± 0.24	-3.01 ± 0.37
GAAAAGCAAUAUUACGAAUC	-2.99 ± 0.21	-1.04 ± 0.18
GAAAAGCAAUAUUACGACAG	-2.55 ± 0.19	-2.27 ± 0.25
GAAAAGCAAUAUUACGACCG	-0.942 ± 0.14	-0.33 ± 0.17
GAAAAGCAAUAUUACGACGG	-2.29 ± 0.17	-2.4 ± 0.32
GAAAAGCAAUAUUACGAGAG	-3.43 ± 0.28	-2.48 ± 0.21
GAAAAGCAAUAUUACGAGAU	-3.26 ± 0.26	-2.08 ± 0.28
GAAAAGCAAUAUUACGAGUU	-1.15 ± 0.073	0.164 ± 0.094
GAAAAGCAAUAUUACGCAAC	-2.92 ± 0.16	-0.437 ± 0.16
GAAAAGCAAUAUUACGCCCG	-0.583 ± 0.14	-0.75 ± 0.21
GAAAAGCAAUAUUACGCCGG	-1.34 ± 0.18	-1.2 ± 0.17
GAAAAGCAAUAUUACGCCUA	-1.15 ± 0.11	-0.681 ± 0.099
GAAAAGCAAUAUUACGCGCA	-0.195 ± 0.062	-0.0235 ± 0.084
GAAAAGCAAUAUUACGGCCC	0.0394 ± 0.14	0.473 ± 0.17
GAAAAGCAAUAUUACGGCUG	-0.13 ± 0.091	0.108 ± 0.14
GAAAAGCAAUAUUACGUAAG	-2.23 ± 0.11	-0.733 ± 0.12
GAAAAGCAAUAUUACGUAGU	-2.02 ± 0.077	-1.75 ± 0.13

Sequence	self-splicing fitness (ln) (30 °C)	self-splicing fitness (ln) (37 °C)
GAAAAGCAAUAUUACGUGUA	-2.58 ± 0.11	-0.56 ± 0.085
GAAAAGCAAUAUUACGUGUC	-3.41 ± 0.13	-2.33 ± 0.14
GAAAAGCAAUAUUACGUUAC	-2.67 ± 0.12	-1.84 ± 0.13
GAAAAGCAAUAUUACGUUCC	-3.72 ± 0.26	-2.95 ± 0.24
GAAAAGCAAUAUUACGUUGG	-3.55 ± 0.19	-2.16 ± 0.16
GAAAAGCAAUAUUACGUUUC	-2.95 ± 0.17	-2.69 ± 0.25
GAACAGCAAUAUUACGACAA	-1.24 ± 0.13	-0.239 ± 0.15
GAACAGCAAUAUUACGACCA	-0.754 ± 0.12	-0.113 ± 0.12
GAACAGCAAUAUUACGACCU	-0.509 ± 0.099	-0.0216 ± 0.13
GAACAGCAAUAUUACGACUC	0.0151 ± 0.071	-0.517 ± 0.082
GAACAGCAAUAUUACGAGCG	-1.94 ± 0.089	-0.559 ± 0.1
GAACAGCAAUAUUACGAUGG	-3.04 ± 0.19	-1.17 ± 0.13
GAACAGCAAUAUUACGCCAC	-3.15 ± 0.22	–
GAACAGCAAUAUUACGCCGG	-1.56 ± 0.18	-0.838 ± 0.24
GAACAGCAAUAUUACGCCGU	-1.98 ± 0.13	-1.61 ± 0.13
GAACAGCAAUAUUACGCGAC	-2.3 ± 0.14	-2.36 ± 0.18
GAACAGCAAUAUUACGCGAG	-2.2 ± 0.099	-1.32 ± 0.11
GAACAGCAAUAUUACGCGAU	-2.87 ± 0.13	-2.27 ± 0.14
GAACAGCAAUAUUACGCUGU	-3.8 ± 0.14	-2.99 ± 0.19
GAACAGCAAUAUUACGGAAA	-2.42 ± 0.16	-1.12 ± 0.14
GAACAGCAAUAUUACGGAAU	-1.6 ± 0.095	-1.18 ± 0.11
GAACAGCAAUAUUACGGAGA	-1.55 ± 0.19	-1.88 ± 0.13
GAACAGCAAUAUUACGGAGU	-2.35 ± 0.066	-1.66 ± 0.1
